# B1: monoclonal antibody 244-12 (antibody, mouse IgG2b, kappa, V domains shown)
# VH: QIQLVQSGPELKKPGETVKISCKASGYTFTNYGMNWVKQAPGKGLKWMGWINTYTGEPTYADDFKGRFAFSLETSANTAYLQINNLRNEGMATYFCARHYRYAWFPYWGQGTLVTVSA
# VL: DIQMTQSPASLSASVGETVTITCRASGNIHIYLAWYQQKQGKSPQLLVYNAKTLADGVPSRFSGSGSGTQYSLKINSLQPEDFGSYYCQHFWSIPWTFGGGTKLEIKR
# notes: also called antibody of the present invention
# Target: T1, TNF receptors on the surface of L929 cells (mouse (L929 cells), UniProt P25118 30-454)
# T1 construct: whole, on cells; the Methods stain with anti-TNFR1; also called cell surface receptors; TNF cell membrane surface receptors
# T1 sequence (looked up): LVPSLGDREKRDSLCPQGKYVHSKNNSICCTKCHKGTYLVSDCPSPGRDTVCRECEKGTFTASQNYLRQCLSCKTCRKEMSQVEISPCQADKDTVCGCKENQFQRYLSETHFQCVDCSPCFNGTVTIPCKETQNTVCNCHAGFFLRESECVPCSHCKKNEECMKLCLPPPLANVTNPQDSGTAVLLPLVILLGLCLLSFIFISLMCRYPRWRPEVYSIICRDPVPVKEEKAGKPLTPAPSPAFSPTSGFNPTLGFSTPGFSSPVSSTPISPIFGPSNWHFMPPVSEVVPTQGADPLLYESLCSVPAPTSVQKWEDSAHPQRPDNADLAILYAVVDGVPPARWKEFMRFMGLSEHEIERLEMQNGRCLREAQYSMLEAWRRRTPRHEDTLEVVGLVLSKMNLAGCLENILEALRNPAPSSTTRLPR
# Test: confocal microscopy on L929 cells, 244-12 alone
# Method: The cells were fixed with 4% paraformaldehyde (in PBS) for 10 min, blocked in a phosphate-buffer containing 0.5% BSA and 0.1% cold water fish-gelatin for 15min and subsequently incubated with rabbit anti-TNFR1 antibodies (Abcam) for 1 hour. […] PBS-washed specimens were then mounted in Gelvatol/DABCO (Sigma-Aldrich). DNA was counterstained with DAPI (Sigma-Aldrich). All samples were analyzed by fluorescent microscopy using a Nikon Eclipse 80i at 60×. Images were acquired with MS-Elements AR3.0 software using a Hamamatsu camera.
binder,measurement,value
B1,binding result,no binding

# Source: patent publication US20190062417A1 (SHANGHAI JW INFLINHIX, published 2019)
